Earlier results, collected in publication PMC3209554.

Target: ClpX N domain (Escherichia coli) (UniProt P0A6H1)
Sequence of UniProt P0A6H1 (P0A6H1 2-56): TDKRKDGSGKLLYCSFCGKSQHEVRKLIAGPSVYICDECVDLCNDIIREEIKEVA

SspB C-terminal tail (from UniProt P0AFZ3)
Kd: 20 µM
